{"source": "patent US20240166754A1", "about": "(SYNTHEKINE, published 2024)", "key": {"[1]": {"biological_target": "T1, extracellular domain of mouse IL12RB1 (mIL12Rb1 ECD antigen) (mouse, UniProt Q60837 20-565)", "T1 construct": "also called murine IL12RB1", "T1 sequence": "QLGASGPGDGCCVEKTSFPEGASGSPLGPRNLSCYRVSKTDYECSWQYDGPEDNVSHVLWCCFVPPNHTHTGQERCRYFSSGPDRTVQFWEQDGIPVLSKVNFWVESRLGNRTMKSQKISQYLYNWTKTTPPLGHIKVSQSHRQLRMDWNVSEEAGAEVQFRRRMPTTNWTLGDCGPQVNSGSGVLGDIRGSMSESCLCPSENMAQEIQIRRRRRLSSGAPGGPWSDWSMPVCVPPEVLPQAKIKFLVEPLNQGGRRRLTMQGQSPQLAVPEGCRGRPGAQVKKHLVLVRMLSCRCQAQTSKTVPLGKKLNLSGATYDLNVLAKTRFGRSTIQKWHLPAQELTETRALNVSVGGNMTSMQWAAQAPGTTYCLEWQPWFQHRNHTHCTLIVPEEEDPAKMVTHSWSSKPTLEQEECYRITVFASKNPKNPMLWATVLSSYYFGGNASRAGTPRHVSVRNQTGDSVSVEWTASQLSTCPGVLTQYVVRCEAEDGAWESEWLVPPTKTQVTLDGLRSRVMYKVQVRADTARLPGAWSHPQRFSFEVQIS", "experiment": "periplasmic extract ELISA on antigen-coated plate after phage biopanning", "description": "(§1) Upon completion of the biopanning of Example 3, three 96-well plates of individual phage clones were isolated in order to perform periplasmic extract ELISA (PE-ELISA) on IL12Rb1 coated plates to identify positive VHH binders that selectively bound IL12Rb1. A 96-well plate was coated with IL12Rb1 and PBS under the same conditions. Next, wells were blocked at 37° ° C. for 1 h. Then, 100 μl of extracted antibodies was added to each well and incubated for 1 h. Subsequently, 100 μl of anti-tag polyclonal antibody conjugated to HRP was added to each well and incubated at 37 °C for 1 h. Plates were developed with TMB substrate. The reaction was stopped by the addition of H2SO4. Absorbance at 450 nm was read on a microtiter plate reader. Antibodies with absorbance of the antigen-coated well at least threefold greater than PBS-coated control are VHHs that specifically bind to IL12Rb1. Positive clones were sequenced, and sequences analyzed to identify unique clonotypes."}, "[2]": {"biological_target": "T2, extracellular domain of human IL12RB1 (hIL12Rb1 ECD antigen) (human, UniProt P42701 24-545)", "T2 construct": "also called IL12Rβ1; CD212", "experiment": "periplasmic extract ELISA on antigen-coated plate after phage biopanning", "description": "as §1"}}}
{"binder": "mIL12Rb1_VHH4 (VHH, Camel VHH) VHH: QVQLQESGGGSVQAGGSLRLSCAASRYTYTNNFMAWFRQAPGKEREGVAAIYTGDGYAYYFDSVKGRFTISQDNDKNMLYLQMNSLKPEDTAMYYCAAMERRSGRRRMTENAEYKYWGQGTQVTVSS", "values": [{"measurement": "binding result", "setting": "[1]", "value": "binds"}]}
{"binder": "mIL12Rb1_VHH12 (VHH, Camel VHH) VHH: QVQLQESGGGSVQAGGSLRLSCAASRYTYTNNFMAWFRQAPGKEREGVAAIYTGDGYAYYFYSVKGRFTISQDNDENMLYLQMNSLKPEDTAMYYCAAMERRIGTRRMTENAEYKYWGQGTQVTVSS", "values": [{"measurement": "binding result", "setting": "[1]", "value": "binds"}]}
{"binder": "hIL12Rb1_VHH1 (VHH, Camel VHH) VHH: QVQLQESGGGSVQAGGSLRLSCVASGYGYCGYDMSWYRQAPGKEREFVALITSDRSISYEDSVKARFIISRDNAANTGYLDMTRLTPDDTAIYYCKTSAAARESSWCRSRYRVASWGQGTQVTVSS", "values": [{"measurement": "binding result", "setting": "[2]", "value": "binds"}]}
{"binder": "mIL12Rb1_VHH9 (VHH, Camel VHH) VHH: QVQLQESGGGSVQAGGSLRLSCVASGYGYCGYDMSWYRQAPGKEREFVALITSDRSISYEDSVKARFIISRDNAANTGYLDMTRLTPDDTAIYYCKTSAAARESSWCRSRYRVASWGQGTQVTVSS", "values": [{"measurement": "binding result", "setting": "[1]", "value": "binds"}]}
{"binder": "mIL12Rb1_VHH19 (VHH, Camel VHH) VHH: QVQLQESGGGSVQAGGFLRLSCVASGYGYCGYDMSWYRQVPGKEREFVALITSDRSVSYEDSVKGRFSISRDNAKNTAYLEMNRLTPDDTAIYYCKTSTAARENNWCRSRYRIASWGQGTQVTVSS", "values": [{"measurement": "binding result", "setting": "[1]", "value": "binds"}]}
{"binder": "mIL12Rb1_VHH20 (VHH, Camel VHH) VHH: QVQLQESGGGSVQAGGSLRLSCVASGYGYCGYDMSWYRQTPGKEREFVALITSDRIASYEDSVKGRFIISRDNAKNTGYLDMTRVTPDDTAIYYCKTSAAARENSWCRSRYRVASWGQGTQVTVSS", "values": [{"measurement": "binding result", "setting": "[1]", "value": "binds"}]}
{"binder": "mIL12Rb1_VHH15 (VHH, Camel VHH) VHH: QVQLQESGGGSVQAGGFLRLSCVASGYGYCGYDMSWYRQVPGKEREFVALITSDRSVSYEDSVKGRFSISRDNAKNTAYLEMNRLTPDDTAVYYCKTSTAARENNWCRSRYRIAYWGQGTQVTVSS", "values": [{"measurement": "binding result", "setting": "[1]", "value": "binds"}]}
{"binder": "mIL12Rb1_VHH8 (VHH, Camel VHH) VHH: QVQLQESGGGSVQAGGFLRLSCVASGYGYCGYDMSWYRQAPGKEREFVALITSERVISYEDSVKGRFSISRDNAENTGYLEMNRLTPDDTAIYYCKTSAAARESSWCRSRYRVASWGQGTQVTVSS", "values": [{"measurement": "binding result", "setting": "[1]", "value": "binds"}]}
{"binder": "mIL12Rb1_VHH1 (VHH, Camel VHH) VHH: QVQLQESGGGSVQAGGSLRLSCTASGYTYSSAFMAWFRQAPGKEREGVAAIYTRDGGTVYADSVKGRFTISQDNAKNTLYLQMNSLKAEDTAMYYCAAKIPQPGRASLLDSQTYDYWGQGTQVTVSS", "values": [{"measurement": "binding result", "setting": "[1]", "value": "binds"}]}
{"binder": "mIL12Rb1_VHH17 (VHH, Camel VHH) VHH: QVQLQESGGGSVQAGGSLRLSCTASGYTYSSAFMAWFRQAPGKEREGVAAMYTRDGGTVYADSVKGRFTISQDNAKNTLYLQIHTLKAEDTAMYYCAAKIPQPGRASLLDSQTYDYWGQGTQVTVSS", "values": [{"measurement": "binding result", "setting": "[1]", "value": "binds"}]}
{"binder": "mIL12Rb1_VHH18 (VHH, Camel VHH) VHH: QVQLQESGGGSVQAGGSLRLSCTASGYTYSSAFMAWFRQAPGKEREGVAAMYTRDGGTVYADSVKGRFTISQDNAKNTLYLQMNSLKTEDTAMYYCAAKIPQPGRASLLDSQTYDYWGQGTQVTVSS", "values": [{"measurement": "binding result", "setting": "[1]", "value": "binds"}]}
{"binder": "mIL12Rb1_VHH23 (VHH, Camel VHH) VHH: QVQLQESGGGSVQAGGSLRLSCTASGYTYSSAFMAWFRQAPGKEREGVAAIYTRDGGTVYADSVKGRFTISQDNAKNTLYLQMNSLKPEDTAMYYCAAKMPQPGRASLLDSQTYDYWGQGTQVTVSS", "values": [{"measurement": "binding result", "setting": "[1]", "value": "binds"}]}
{"binder": "mIL12Rb1_VHH22 (VHH, Camel VHH) VHH: QVQLQESGGGSVQAGGSLRLSCTASGYTYSSAFMAWFRQAPGKEREGVAAIYTRDGGTVYADSVKGRFTISQDNAKNILYLQMNSLKAEDTAMYYCAAKIPQPGRASLLDSQTYDYWGQGTQVTVSS", "values": [{"measurement": "binding result", "setting": "[1]", "value": "binds"}]}
{"binder": "mIL12Rb1_VHH6 (VHH, Camel VHH) VHH: QVQLQESGGGSVQAGGSLRLSCTASGYTYSSAFMAWFRQAPGKEREGVAAIYTRDGSPVYADSLKGRFTISQDNAKNTLHLQMNSLKPEDTAMYYCAAKIPEPGRISLLDSQTYDYWGHGTQVTVSS", "values": [{"measurement": "binding result", "setting": "[1]", "value": "binds"}]}
{"binder": "mIL12Rb1_VHH5 (VHH, Camel VHH) VHH: QVQLQESGGGSVQAGETLRLSCTVSGFTIDDSEMGWYRQAPGHECELVASGSSDDDTYYVDSVKGRFTISLDNAKNMVYLQMNSLKPEDTAVYYCATGPTYPPKDGDCAHWGQGTQVTVSS", "values": [{"measurement": "binding result", "setting": "[1]", "value": "binds"}]}
{"binder": "mIL12Rb1_VHH3 (VHH, Camel VHH) VHH: QVQLQESGGGSVQAGGSLRLSCVASGYSYCGYDMMWYRQAPGKEREFVALITSDYSIRYEDSVEGRFSISRDNAKNTGYLLMSNLTPADTAIYYCKTSTAARESSWCRSRYRVASWGQGTQVTVSS", "values": [{"measurement": "binding result", "setting": "[1]", "value": "binds"}]}
{"binder": "mIL12Rb1_VHH11 (VHH, Camel VHH) VHH: QVQLQESGGGSVQAGGSLRLSCVASGYSYCGYDMMWYRQAPGKEREFVALITSDYSIRYEDSVEGRFSISRDNAKNTGYLLMSNLTPADTAIYYCKTSTAARESSWCRSRYRVASWGQGTQVTVSS", "values": [{"measurement": "binding result", "setting": "[1]", "value": "binds"}]}
{"binder": "mIL12Rb1_VHH13 (VHH, Camel VHH) VHH: QVQLQESGGGSVQAGGSLRLSCVASGYSYCGYDMMWYRQAPGKEREFVALITSDYSIRYEDSVEGRFSISRDNAKNTGYLLMSNLTPADTAIYYCKTSTAARESGWCRSRYRVASWGQGTQVTVSS", "values": [{"measurement": "binding result", "setting": "[1]", "value": "binds"}]}
{"binder": "hIL12Rb1_VHH10 (VHH, Camel VHH) VHH: QVQLQESGGGSVQAGGSLRLSCAVSGYDYCGYDVRWYRQAPGKEREFVSGIDSDGSTSYADSVKGRFTISQDNAENTSYLHMFSLKPEDTAMYYCKTESPAGESAWCRNFRGMDYWGKGTQVTVSS", "values": [{"measurement": "binding result", "setting": "[2]", "value": "binds"}]}
{"binder": "mIL12Rb1_VHH10 (VHH, Camel VHH) VHH: QVQLQESGGGSVQAGGSLRLSCAVSGYDYCGYDVRWYRQAPGKEREFVSGIDSDGSTSYADSVKGRFTISQDNAENTSYLHMFSLKPEDTAMYYCKTESPAGESAWCRNFRGMDYWGKGTQVTVSS", "values": [{"measurement": "binding result", "setting": "[1]", "value": "binds"}]}
{"binder": "mIL12Rb1_VHH2 (VHH, Camel VHH) VHH: QVQLQESGGGSVQAGGSLRLSCAVSGYDYCGYDVRWYRQAPGKEREFVSGIDSDGSTSYADSVKGRFTISQDNAENTSYLHMFSLKPEDTAMYYCKTESPAGESAWCRNFRGMDYWGKGTQVTVSS", "values": [{"measurement": "binding result", "setting": "[1]", "value": "binds"}]}
{"binder": "mIL12Rb1_VHH14 (VHH, Camel VHH) VHH: QVQLQESGGGSVQAGGSLRLSCAVSGYDYCGYDVRWYRQAPGKEREFVSGINSDGSTSYADSVKGRFTISQDNAENTSYLHMFSLKPEDTAMYYCKTESPAGESAWCRNFRGMDYWGKGTQVTVSS", "values": [{"measurement": "binding result", "setting": "[1]", "value": "binds"}]}
{"binder": "mIL12Rb1_VHH7 (VHH, Camel VHH) VHH: QVQLQESGGGSVQAGGSLRLSCAVSGYDYCGYDVRWYRRAPGKEREFVSGIDSDGSTSYADSVKGRFTISQDNAENTSYLHMFSLKPEDTAMYYCKTESPAGESAWCRNFRGMDYWGKGTQVTVSS", "values": [{"measurement": "binding result", "setting": "[1]", "value": "binds"}]}
{"binder": "mIL12Rb1_VHH16 (VHH, Camel VHH) VHH: QVQLQESGGGSVQAGGSLRLSCAVSGYDYCGYDVRWYRQAPGKEREFVSGINSDGSTSYADSVKGRFTISQDNAENTSYLHMFSLKPEDTAMYYCKTEGPAGESAWCRNFRGMDYWGKGTQVTVSS", "values": [{"measurement": "binding result", "setting": "[1]", "value": "binds"}]}
{"binder": "hIL12Rb1_VHH7 (VHH, Camel VHH) VHH: QVQLQESGGGSVQAGGSLRLSCAVSGYDYCGYDVRWYRRAPGKEREFVSGIDSDGSTSYADSVKGRFTISQDNAENTSYLHMFSLKPEDTAMYYCKTESPAGESAWCRNFRGMDYWGKGTQVTVSS", "values": [{"measurement": "binding result", "setting": "[2]", "value": "binds"}]}
{"binder": "hIL12Rb1_VHH14 (VHH, Camel VHH) VHH: QVQLQESGGGSVQAGGSLRLSCAVSGYDYCGYDVRWYRRAPGKEREFVSGIDSDGSTSYADSVKGRFTISQDNAENTSYLHMFSLKPEDTAMYYCKTESPAGESAWCRNFRGMDYWGKGTQVTVSS", "values": [{"measurement": "binding result", "setting": "[2]", "value": "binds"}]}
{"binder": "mIL12Rb1_VHH21 (VHH, Camel VHH) VHH: QVQLQESGGGSVQAGGSLRLSCAVSGYDYCGYDVRWYRRAPGKEREFVSGIDSDGSTSYADSVKGRFTISQDNAENTSYLHMFSLKPEDTAMYYCKTESPAGESAWCRNFRGMDYWGKGTQVTVSS", "values": [{"measurement": "binding result", "setting": "[1]", "value": "binds"}]}
